The values that follow are results of earlier work, collected in paper PMC7380111.

pKd: −log10 of the molar value.

One series has as its target NRP2 (Homo sapiens) (UniProt O60462).
A further series has as its target NRP1 (Homo sapiens) (UniProt O14786).
Sequence of UniProt O14786 (O14786 22-923): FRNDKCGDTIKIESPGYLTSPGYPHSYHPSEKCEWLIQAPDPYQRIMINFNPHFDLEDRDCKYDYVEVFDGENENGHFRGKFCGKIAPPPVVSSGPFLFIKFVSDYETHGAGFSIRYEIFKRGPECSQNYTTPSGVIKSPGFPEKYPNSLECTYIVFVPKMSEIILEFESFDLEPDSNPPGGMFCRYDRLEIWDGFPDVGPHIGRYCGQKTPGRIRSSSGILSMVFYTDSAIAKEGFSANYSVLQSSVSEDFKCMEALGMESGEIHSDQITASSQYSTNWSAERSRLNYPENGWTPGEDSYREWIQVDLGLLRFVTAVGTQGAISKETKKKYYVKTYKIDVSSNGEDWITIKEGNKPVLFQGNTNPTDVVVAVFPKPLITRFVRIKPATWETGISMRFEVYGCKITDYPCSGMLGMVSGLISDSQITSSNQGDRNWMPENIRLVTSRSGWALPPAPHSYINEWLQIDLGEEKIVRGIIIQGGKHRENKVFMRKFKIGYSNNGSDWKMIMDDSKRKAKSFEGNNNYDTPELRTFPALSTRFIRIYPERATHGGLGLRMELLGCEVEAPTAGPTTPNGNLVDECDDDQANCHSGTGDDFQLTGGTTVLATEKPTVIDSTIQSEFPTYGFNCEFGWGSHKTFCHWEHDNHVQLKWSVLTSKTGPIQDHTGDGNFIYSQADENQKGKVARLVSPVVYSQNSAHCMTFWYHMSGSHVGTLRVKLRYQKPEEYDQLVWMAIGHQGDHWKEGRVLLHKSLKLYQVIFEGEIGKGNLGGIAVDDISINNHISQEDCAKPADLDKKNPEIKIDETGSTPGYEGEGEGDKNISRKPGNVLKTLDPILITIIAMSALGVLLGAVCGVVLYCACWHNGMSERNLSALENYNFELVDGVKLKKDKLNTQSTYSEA

Sequence of UniProt O60462 (O60462 21-931): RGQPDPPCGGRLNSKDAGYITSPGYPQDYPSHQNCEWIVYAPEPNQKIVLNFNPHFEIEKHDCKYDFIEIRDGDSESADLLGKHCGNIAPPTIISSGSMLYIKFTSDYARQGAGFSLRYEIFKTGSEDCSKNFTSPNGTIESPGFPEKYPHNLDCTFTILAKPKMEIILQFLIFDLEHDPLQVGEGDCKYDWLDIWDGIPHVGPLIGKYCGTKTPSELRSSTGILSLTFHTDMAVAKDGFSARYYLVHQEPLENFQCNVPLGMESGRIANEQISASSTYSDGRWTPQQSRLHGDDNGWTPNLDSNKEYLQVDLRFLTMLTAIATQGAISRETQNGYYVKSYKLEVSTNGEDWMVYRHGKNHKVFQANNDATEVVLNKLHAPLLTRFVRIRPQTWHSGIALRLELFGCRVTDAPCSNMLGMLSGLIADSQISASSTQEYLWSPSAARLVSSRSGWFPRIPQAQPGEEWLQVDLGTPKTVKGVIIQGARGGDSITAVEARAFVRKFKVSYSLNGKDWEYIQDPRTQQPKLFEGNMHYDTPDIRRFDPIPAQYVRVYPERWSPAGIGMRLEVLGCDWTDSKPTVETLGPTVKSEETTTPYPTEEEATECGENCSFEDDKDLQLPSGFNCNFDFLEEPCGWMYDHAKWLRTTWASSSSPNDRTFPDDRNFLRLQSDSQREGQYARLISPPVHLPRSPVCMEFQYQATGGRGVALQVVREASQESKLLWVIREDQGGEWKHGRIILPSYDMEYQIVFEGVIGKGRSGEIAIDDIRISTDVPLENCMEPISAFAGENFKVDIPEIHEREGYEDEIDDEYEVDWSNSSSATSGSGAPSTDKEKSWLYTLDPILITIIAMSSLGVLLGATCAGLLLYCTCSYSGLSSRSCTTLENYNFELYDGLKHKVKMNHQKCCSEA

Take VEGF165 (from UniProt P15692): the results for the pKd with NRP2 (Homo sapiens) and with NRP1 (Homo sapiens) were 8.30 and 9.70, respectively.
